Results on 43 molecules are retold here after patent US20200338203A1 (Bicycle, published 2020).

Numbered stars: 1 amine (or outer) side, 2 acyl side, 3 side chain; on linkers, the order of the positions; unused ones are H or OH. Bridge positions count the residues as written; N and C are the ends. Square brackets hold non-standard residues; d marks the D form. Ends that are not written are not given here. ThiAz = 3-(1,2,4-triazol-1-yl)-alanine, O=C([C@H](Cn1cncn1)N[*:1])[*:2]; Ala(2-furyl) = N[C@@H](Cc1ccco1)C(=O)O; 1Nal = N[C@@H](Cc1cccc2ccccc12)C(=O)O; TBMB = c1c(C[*:1])cc(C[*:3])cc1C[*:2]; hArg = N=C(N)NCCCC[C@H](N)C(=O)O; Tle = CC(C)(C)[C@H](N)C(=O)O; Pip = O=C(O)[C@@H]1CCCCN1; Aze = O=C(O)[C@@H]1CCN1; Aib = CC(C)(N)C(=O)O; azaGly = NNC(=O)O; βAla = NCCC(=O)O; Sar = CNCC(=O)O

T1 sequence (P29317 24-537): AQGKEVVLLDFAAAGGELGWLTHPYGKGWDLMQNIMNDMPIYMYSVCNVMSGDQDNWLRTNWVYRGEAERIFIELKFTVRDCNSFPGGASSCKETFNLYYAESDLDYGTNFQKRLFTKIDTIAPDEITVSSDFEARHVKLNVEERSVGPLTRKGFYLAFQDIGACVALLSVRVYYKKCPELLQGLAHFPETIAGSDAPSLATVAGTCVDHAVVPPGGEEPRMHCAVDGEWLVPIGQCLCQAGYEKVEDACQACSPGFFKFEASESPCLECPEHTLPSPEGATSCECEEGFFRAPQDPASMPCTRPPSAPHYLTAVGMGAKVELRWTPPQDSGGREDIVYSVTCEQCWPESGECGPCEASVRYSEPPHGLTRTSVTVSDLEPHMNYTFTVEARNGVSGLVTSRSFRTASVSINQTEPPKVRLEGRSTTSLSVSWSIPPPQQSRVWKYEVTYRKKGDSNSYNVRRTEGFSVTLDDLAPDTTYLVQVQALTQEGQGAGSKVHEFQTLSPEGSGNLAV

The first assay concerns the target T1, Human EphA2 (Ecto) (Human, UniProt P29317 24-537).
T1 construct: extracellular domain
The assay is described as follows: FP competition; competitor Compound 18. Here is the method: (§1) Peptides without a fluorescent tag were tested in competition with a peptide with a fluorescent tag and a known Kd (Table 2). Peptides were diluted to an appropriate concentration in assay buffer as described in the direct binding assay with a maximum of 5% DMSO, then serially diluted 1 in 2. Five μL of diluted peptide was added to the plate followed by 10 μL of human or mouse EphA2 (Table 1) at a fixed concentration which was dependent on the fluorescent peptide used (Table 2), then 10 μL fluorescent peptide added. Measurements were conducted as for the direct binding assay, however the gain was determined prior to the first measurement.
As usually defined, the Ki is the equilibrium dissociation constant of an inhibitor or competing ligand from its target. For the molecule Ac-[Sar][Sar]H[dD]VPCP[1Nal]G[Aib]F[1Nal]CPVNR[Aib]GC (linker 7-14-21 via TBMB) [Compound 261], the Ki was found to be 0.63 nM.

As to [Sar][Sar]AHDV[Pip]CPWGPFWCPVNRPGC (linker 8-15-22 via TBMB) [Compound 222], the Ki is 3.4 nM.

Regarding [βAla][Sar][Sar][Sar][Sar][Sar][Sar][Sar][Sar][Sar][Sar]H[dD]VPCP[1Nal]G[Aib]F[1Nal]CP[Tle]NRPGC (linker 16-23-30 via TBMB) [Compound 252], the Ki came to 0.37 nM.

In the case of [Sar][Sar]A[ThiAz]DVPCPWGPFWCPVNRPGC (linker 8-15-22 via TBMB) [Compound 202], the Ki stood at 0.7 nM.

With [βAla][Sar][Sar][Sar][Sar][Sar][Sar][Sar][Sar][Sar][Sar]H[dD]VPCPWG[Aib]FWCP[Tle]N[hArg]P[dD]C (linker 16-23-30 via TBMB) [Compound 271], the Ki was 3.66 nM.

On to Ac-[Sar][Sar]AH[dD]V[Sar]CPWGPFWCPVNRPGC (linker 8-15-22 via TBMB) [Compound 212], for which the Ki was 4.95 nM.

Regarding [Sar][Sar]AHD[dA]PCPWGPFWCPVNRPGC (linker 8-15-22 via TBMB) [Compound 215], the Ki came out at 26 nM.

As for Ac-[Sar][Sar]A[dH]DVPCPWG[Aib]FWCP[Tle]NR[Aib]GC (linker 8-15-22 via TBMB) [Compound 233], the Ki came to 4.8 nM.

Regarding Ac-[Sar][Sar]A[dH]DVPCPWGPFWCP[hArg]NRPGC (linker 8-15-22 via TBMB) [Compound 229], the Ki was 5.1 nM.

On to [Sar][Sar]AHDV[Aze]CPWGPFWCPVNRPGC (linker 8-15-22 via TBMB) [Compound 221], for which the inhibition constant (Ki) came out at 3.1 nM.

With [Sar][Sar]A[Ala(2-furyl)]DVPCPWGPFWCPVNRPGC (linker 8-15-22 via TBMB) [Compound 203], the Ki is 0.49 nM.

Ac-[Sar][Sar]A[dD]DVPCPWGPFWCPVNRPGC (linker 8-15-22 via TBMB) [Compound 200]: the Ki is 4.1 nM.

In the case of [Sar][Sar]AHD[Tle]PCPWGPFWCPVNRPGC (linker 8-15-22 via TBMB) [Compound 217], the Ki was 0.49 nM.

As for Ac-[Sar][Sar]A[dD]DVTCP[1Nal]GPFWCPVNRPGC (linker 8-15-22 via TBMB) [Compound 282], the Ki was found to be 0.87 nM.

As for [Sar][Sar]AHD[Aib]PCPWGPFWCPVNRPGC (linker 8-15-22 via TBMB) [Compound 216], the Ki is 2.77 nM.

Consider Ac-[Sar][Sar]H[dD]VPCP[1Nal]G[Aib]FWCPVNR[Aib]GC (linker 7-14-21 via TBMB) [Compound 266], for which the Ki was 1.6 nM.

On to [Sar][Sar]AHDV[dA]CPWGPFWCPVNRPGC (linker 8-15-22 via TBMB) [Compound 219], for which the Ki was 15 nM.

As for [Sar][Sar]A[dA]DVPCPWGPFWCPVNRPGC (linker 8-15-22 via TBMB) [Compound 199], the inhibition constant (Ki) stood at 3.35 nM.

Regarding Ac-[Sar][Sar]H[dD]VPCPWG[Aib]FWCP[Tle]NR[Aib]GC (linker 7-14-21 via TBMB) [Compound 270], the Ki was found to be 1.52 nM.

As for Ac-[Sar][Sar]A[dH]D[Tle]PCPWGPFWCPVNRPGC (linker 8-15-22 via TBMB) [Compound 204], the Ki stood at 2.15 nM.

As to Ac-[Sar][Sar]A[dD]DVTCP[1Nal]GPF[1Nal]CPVNRPGC (linker 8-15-22 via TBMB) [Compound 283], the Ki was 0.28 nM.

Take Ac-[Sar][Sar]H[dD]VPCPW[azaGly]PFWCPVNRPGC (linker 7-14-21 via TBMB) [Compound 267]: the Ki is 0.66 nM.

For [βAla][Sar][Sar][Sar][Sar][Sar][Sar][Sar][Sar][Sar][Sar]HDVPCPWGPFWCPVNRPGC (linker 16-23-30 via TBMB) [Compound 223], the Ki is 1.29 nM.

In the case of [Sar][Sar]AH[dE]VPCPWGPFWCPVNRPGC (linker 8-15-22 via TBMB) [Compound 208], the Ki amounted to 2 nM.

For Ac-[Sar][Sar]AH[dD]VPCPWGPFWCPVNRPGC (linker 8-15-22 via TBMB) [Compound 210], the Ki was found to be 1.1 nM.

As to Ac-[Sar][Sar]AH[dD]VPCP[1Nal]GPFWCP[Tle]N[hArg]PGC (linker 8-15-22 via TBMB) [Compound 227], the Ki is 0.75 nM.

Consider [Sar][Sar]AHDV[Aib]CPWGPFWCPVNRPGC (linker 8-15-22 via TBMB) [Compound 220], for which the Ki stood at 0.83 nM.

As for [βAla][Sar][Sar][Sar][Sar][Sar][Sar][Sar][Sar][Sar][Sar]H[dD]VPCPWGPFWCPVNRPGC (linker 16-23-30 via TBMB) [Compound 226], the inhibition constant (Ki) stood at 0.84 nM.

For the molecule [βAla][Sar][Sar][Sar][Sar][Sar][Sar][Sar][Sar][Sar][Sar]H[dD]VPCPWGP[hArg]WCP[Tle]N[hArg]P[dD]C (linker 16-23-30 via TBMB) [Compound 272], the Ki came out at 3.99 nM.

Ac-[Sar][Sar]AH[dD][Tle]PCPWGPFWCPVNRPGC (linker 8-15-22 via TBMB) [Compound 211]: the Ki was determined as 3.1 nM.

Consider Ac-[Sar][Sar][dH]DVPCPWGPFWCPVNRPGC (linker 7-14-21 via TBMB) [Compound 224], for which the Ki worked out at 1.09 nM.

Ac-[Sar][Sar]H[dD]VPCPWG[Aib]F[1Nal]CPVNR[Aib]GC (linker 7-14-21 via TBMB) [Compound 268]: the Ki amounted to 1.24 nM.

With Ac-[Sar][Sar]A[dH]DVPCP[1Nal]GPFWCP[Tle]N[hArg]PGC (linker 8-15-22 via TBMB) [Compound 230], the Ki amounted to 1.8 nM.

As for Ac-[Sar][Sar]A[dH]DVCPWGPFWCPVNRPGC (linker 7-14-21 via TBMB) [Compound 198], the Ki was determined as 20 nM.

[Sar][Sar]AH[dA]VPCPWGPFWCPVNRPGC (linker 8-15-22 via TBMB) [Compound 206]: the Ki came out at 8.3 nM.

Regarding AHDVPCPWGPFWCPVNRPGCA (linker 6-13-20 via TBMB) [Compound 59], the Ki turned out to be 0.54 nM.

As to Ac-[Sar][Sar]AH[dD]V[Aib]CPWGPFWCPVNRPGC (linker 8-15-22 via TBMB) [Compound 213], the Ki stood at 1.9 nM.

AGEMACPWGPFWCPVNRPGCA (linker 6-13-20 via TBMB) [Compound 53]: the Ki was 12.3 nM.

With [Sar][Sar]AH[dD]VPCPWGPFWCPVNRPGC (linker 8-15-22 via TBMB) [Compound 209], the Ki worked out at 1.25 nM.

Regarding Ac-[Sar][Sar]A[dD]DVTCP[1Nal]G[Aib]FWCP[Tle]N[hArg]PGC (linker 8-15-22 via TBMB) [Compound 284], the Ki came out at 3.8 nM.

Another assay deals with T1, Human EphA2 (Ecto). The assay is described as follows: FP competition; competitor Compound 66. On the procedure:
as §1
In the case of ACMNDWLCSLGWTCA (linker 2-8-14 via TBMB) [Compound 24], the Ki was 82.3 nM.

For ACMNDWLCQLGWTCA (linker 2-8-14 via TBMB) [Compound 30], the Ki is 56 nM.

Consider ACPWGPMWCPVNRPGCA (linker 2-9-16 via TBMB) [Compound 46], for which the Ki amounted to 95.8 nM.
